# Test results from IntAct's records for PubMed 32873725.
# B1: Phospholamban (Mus musculus), P61014 (parent)
# chain: MEKVQYLTRSAIRRASTIEMPQQARQNLQNLFINFCLILICLLLICIIVMLL
# Variants of: B1
# Conditions: with kcc2d_human CAMK2D
row,effect of a mutation on the interaction,Variant
1,with no effect,MEKVQYLTRSAIRRAATIEMPQQARQNLQNLFINFCLILICLLLICIIVMLL [S16A]
